Publication PMC4157841, “Ethylmalonic Encephalopathy ETHE1 R163W/R163Q Mutations Alter Protein Stability and Redox Properties of the Iron Centre” (PLoS ONE, 2014)

Target: the molecule itself
Experiment: SEC; Superdex 75 in 50 mM Tris-HCl pH 7.5, 150 mM NaCl, column calibrated with standard proteins; native molecular mass determined; data not shown

| Protein | stoichiometry N |
| --- | --- |
| Human ETHE1 wild type (enzyme, UniProt O95571 8-254, looked up, Holds about 1 mol iron per mol protein; also called ETHE1-WT; wild-type ETHE1; source: E. coli Bl21 DE3, purified (His-trap HP, Superdex 75 size exclusion)) VARRQLSQRGGSGAPILLRQMFEPVSCTFTYLLGDRESREAVLIDPVLETAPRDAQLIKELGLRLLYAVNTHCHADHITGSGLLRSLLPGCQSVISRLSGAQADLHIEDGDSIRFGRFALETRASPGHTPGCVTFVLNDHSMAFTGDALLIRGCGRTDFQQGCAKTLYHSVHEKIFTLPGDCLIYPAHDYHGFTVSTVEEERTLNPRLTLSCEEFVKIMGNLNLPKPQQIDFAVPANMRCGVQTPTA | 2 |
| Human ETHE1-p.Arg163Gln (enzyme, UniProt O95571 8-254, looked up, also called ETHE1 R163Q; source: E. coli Bl21 DE3, purified (His-trap HP, Superdex 75 size exclusion)) VARRQLSQRGGSGAPILLRQMFEPVSCTFTYLLGDRESREAVLIDPVLETAPRDAQLIKELGLRLLYAVNTHCHADHITGSGLLRSLLPGCQSVISRLSGAQADLHIEDGDSIRFGRFALETRASPGHTPGCVTFVLNDHSMAFTGDALLIRGCGQTDFQQGCAKTLYHSVHEKIFTLPGDCLIYPAHDYHGFTVSTVEEERTLNPRLTLSCEEFVKIMGNLNLPKPQQIDFAVPANMRCGVQTPTA | 2 |
| Human ETHE1-p.Arg163Trp (enzyme, UniProt O95571 8-254, looked up, also called ETHE1 R163W; source: E. coli Bl21 DE3, purified (His-trap HP, Superdex 75 size exclusion)) VARRQLSQRGGSGAPILLRQMFEPVSCTFTYLLGDRESREAVLIDPVLETAPRDAQLIKELGLRLLYAVNTHCHADHITGSGLLRSLLPGCQSVISRLSGAQADLHIEDGDSIRFGRFALETRASPGHTPGCVTFVLNDHSMAFTGDALLIRGCGWTDFQQGCAKTLYHSVHEKIFTLPGDCLIYPAHDYHGFTVSTVEEERTLNPRLTLSCEEFVKIMGNLNLPKPQQIDFAVPANMRCGVQTPTA | 2 |
